The values below come from article PMC11931385, “Structural and functional analysis of cancer-associated missense variants in the retinoblastoma protein pocket domain” (The Journal of Biological Chemistry, 2025).

Changes are numbered by the printed parent chain. Numbers in names are those of the source. No end group written: not given here. TMR = tetramethyl rhodamine dye

What all share (assay): fluorescence polarisation; 25 °C; unlabeled Rb^P titrated against 1.5 nM TMR-E2F1^TD or 7.5 nM TMR-E7^LxCxE; 25 mM Tris pH 8.0, 200 mM NaCl, 1 mM DTT, 0.1% Tween-20; 2 min incubation; quadratic fit; apparent Kd for the variants, Kd for WT
What all share (conditions): both partners purified
(In fluorescence polarisation assays a small probe gives low polarisation when free and higher when bound to something large.)

One assay concerns the target T1, Rb^P R668H (human, UniProt P06400 380-788, R668H).
T1 construct: also called variant 52
T1 sequence (looked up): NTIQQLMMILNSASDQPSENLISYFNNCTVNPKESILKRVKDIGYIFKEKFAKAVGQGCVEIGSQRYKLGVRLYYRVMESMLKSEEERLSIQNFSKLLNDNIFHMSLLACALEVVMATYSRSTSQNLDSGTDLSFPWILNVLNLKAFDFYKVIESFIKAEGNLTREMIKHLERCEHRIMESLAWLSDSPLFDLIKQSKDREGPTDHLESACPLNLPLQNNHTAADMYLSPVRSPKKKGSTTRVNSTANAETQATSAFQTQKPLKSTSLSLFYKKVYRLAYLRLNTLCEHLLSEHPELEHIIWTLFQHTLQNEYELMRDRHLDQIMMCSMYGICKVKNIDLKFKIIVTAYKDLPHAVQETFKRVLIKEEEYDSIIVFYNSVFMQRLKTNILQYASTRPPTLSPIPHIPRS

In another assay the target is T2, Rb^P D697E (human, UniProt P06400 380-788, D697E).
T2 construct: also called variant 62
T2 sequence (looked up): T1 sequence (looked up) with H289R, D318E

Another assay addresses T3, Rb^P H686Y (human, UniProt P06400 380-788, H686Y).
T3 construct: also called variant 58
T3 sequence (looked up): T1 sequence (looked up) with H289R, H307Y

The target in another assay is T4, Rb^P S534R (human, UniProt P06400 380-788, S534R).
T4 construct: also called variant 23
T4 sequence (looked up): T1 sequence (looked up) with S155R, H289R

Another assay concerns the target T5, Rb^P Y606C (human, UniProt P06400 380-788, Y606C).
T5 construct: also called variant 37
T5 sequence (looked up): T1 sequence (looked up) with Y227C, H289R

B1: TMR-E2F1^TD, peptide of the E2F1 transactivation domain (peptide)
peptide: {TMR}-GEGIRDLFDCDFGDLTPLD
notes: also called E2F^TD; source: synthetic peptide, bought: GenScript
For B1, the Kd in the assay with Rb^P R668H was 13 nM; in the assay with Rb^P D697E, 29 nM; with Rb^P H686Y it was 20 nM; with Rb^P S534R it was 9280 nM; in the assay with Rb^P Y606C, 15 nM.

B2: TMR-E7^LxCxE, LxCxE peptide of the E7 oncoprotein from HPV (peptide)
peptide: DLYCYEQLN
modifications: also: TMR label, position not given here
notes: source: synthetic peptide, bought: GenScript
Turning to B2, the Kd with Rb^P R668H stood at 7 nM; with Rb^P D697E, 9 nM; with Rb^P H686Y it was 5 nM; with Rb^P S534R it was 4 nM; with Rb^P Y606C it was 7 nM.
